Results on one substance are retold here after article doi:10.1101/2024.11.10.622895.

In the assay the target is tail tube protein (TTP) of Bacillus subtilis bacteriophage SPR (Bacillus subtilis bacteriophage SPR). In words: cryo-EM structure.

Values joined by “and” are separate entries in the source; they are usually repeats but may differ in a detail not shown here. Equal entries are not always repeated.

The term stoichiometry N denotes the number of molecules, sites or subunits per partner or assembly. “tail tube protein (TTP) of Bacillus subtilis bacteriophage SPR (natural protein)”: the stoichiometry N is 5 and 6.
